Experiments:
[1] = biological target: JRFL gp140 NFL2P (HIV-1 (JRFL)); test: negative-stain EM of unliganded trimers
[2] = biological target: JRFL gp140 NFL2P (HIV-1 (JRFL)); test: SEC + native gel or EMSA
[3] = biological target: BG505 gp140 NFL2P (HIV-1 (BG505)); test: negative-stain EM of unliganded trimers
[4] = biological target: BG505 gp140 NFL2P (HIV-1 (BG505)); test: SEC + native gel or EMSA
[5] = biological target: 16055 gp140 NFL2P (HIV-1 (16055)); test: negative-stain EM of unliganded trimers

Substance: JRFL gp140 NFL2P
- stoichiometry N [1]: 3
- stoichiometry N [2]: 3

Substance: BG505 gp140 NFL2P
- stoichiometry N [3]: 3
- stoichiometry N [4]: 3

Substance: 16055 gp140 NFL2P
- stoichiometry N [5]: 3

From paper PMC4637274
